Reference: a protein production outcome set (Wang et al. 2014)

Assay: label from the status in PepcDB records

| Sequence | protein production |
| --- | --- |
| MGLLSDPVRRRALARLVLRLNAPLCVLSYVAGIAWFLALVFPPLTQRTYMSENAMGSTMVEEQFAGGDRARAFARDFAAHRKKSGALPVAWLERTMRSVGLEVYTQSFSRKLPFPDETHERYMVSGTNVYGILRAPRAASTESLVLTVPCGSDSTNSQAVGLLLALAAHFRGQIYWAKDIVFLVTEHDLLGTEAWLEAYHDVNVTGMQSSPLQGRAGAIQAAVALELSSDVVTSLDVAVEGLNGQLPNLDLLNLFQTFCQKGGLLCTLQGKLQPEDWTSLDGPLQGLQTLLLMVLRQASGRPHGSHGLFLRYRVEALTLRGINSFRQYKYDLVAVGKALEGMFRKLNHLLERLHQSFFLYLLPGLSRFVSIGLYMPAVGFLLLVLGLKALELWMQLHEAGMGLEEPGGAPGPSVPLPPSQGVGLASLVAPLLISQAMGLALYVLPVLGQHVATQHFPVAEAEAVVLTLLAIYAAGLALPHNTHRVVSTQAPDRGWMALKLVALIYLALQLGCIALTNFSLGFLLATTMVPTAALAKPHGPRTLYAALLVLTSPAATLLGSLFLWRELQEAPLSLAEGWQLFLAALAQGVLEHHTYGALLFPLLSLGLYPCWLLFWNVLFWK | failed |
| MPTYSAMANTDGGIVILGVRERKGQFEVAGIENPDKLRTELFNHLNNRQKVSVNLLRDEDVRAWPVEGKTLLVVEIPRARRQQRPVYLRGNPLGGHTYRRLHEGDRPLEHHHHHH | failed |
| MADSRQAQGPGKSVLGIGQRIVTIIVEMVETRLRLAVVELEEEKANLFQLLLMVGLTMLFAAFGLMSLMVLVIWAIDPQYRLNAMIATTVVLLVLALIGGIWTLRKARQSTLLRHTRHELANDRQILEDDQS | failed |
| QSTGQVTLGVLTDMSSVYADSAGKGSVAAVQLAIEDVGGKALGQPVKLVSADYQMKTDVALSIAREWFDRDGVDAIFDVVNSGTALAINNLVKDKKKLAFITAAAADQIGGTECNGYGIGFLYNFTSIVKTVVQAQLAKGYKTWFLMLPDAAYGDLMNAAIRRELTAGGGQIVGSVRFPFETQDFSSYLLQAKASGAQLIVSTSGGAANINIMKQAREFGLPSKTQKVGGMIDILTDVKSAGLRVMQGQEYATSFYWNMDDRTRAFAKRFYAKMGKMPTNNQAGGYSAALQYLKAVNAIGSKDPQKVFAYLKTIKFDDAVTRHGTLRPGGRLVRDMYLVRAKKPEDQKGDWDYYDVVATIGPEQAFGPLSESRCAMDK | not failed |
| MFSPQAYLIFNMRKPPFDNIKVRQAVMHAFNRKLVVDNIFFGLGKISTSPFVPTEMFFDKDIPAIPFDMKKARALIKESGINPGDYTIRQLSFPYGATWDRLGEYTKQALEQLGFKVNVESTDAGGWASRTGNWDFDLTTTYSYQYGDPALGVQRLYVTSNIVKGSPFANMQGYSNPESDKLWEQAAAEVDPAKRQELYNKIQALLVAEVANGFLVDME | failed |
| MRKVTAAVMASTLAFSFLSHAAEVVTSDNWHPGDGATQRSAQNHMFDGISLTEHQRQQMRDLMQQARHEQPPVNVSEMETMHRLVTAEKFDESAVRAQAEKMAQEQVARQVEMARVRNQMYRLLTPEQQAVLNEKHQQRMEQLRDVAQWQKSSSLKLLSSSNSRSQLEHHHHHH | failed |
| MKLRKRRLCAATGVVLGALTALAALPPAAVASPHPGGHPPTARRALPLGPAGLPERRTTTTLQPGVTLTRIVRGNAEDPALHWTVEVSIPGGDTSPDPDAPPTALKDRASADELAAELRRDGFEARVEEVTTPATADYRGGTLGWRVRIGTFDSQTAATAERTRLRAAGYSGSAVYTGWDGAATDRGPWHVDVLTIDPRTFRGTLDASYGPDLENRETTSALAASAAATAAVNAGFFVLDPRAGAPGDPAGVGVYDGRLLSEPVAGRPALVVHDDGRRTEIARLTWQGRIATRAASLPLNGVNRVPGLIRNCGGSAGDTPTSLPLHDVTCTNPDELVAFTPDYGGRTPGGEGMEAVLDAHERVVELRSPRGGTIPRGGSSVQATGERVADLTATARVGERLRVSATLLDDRGRRMSTSPGTDIVNAGPELVRDGRVHVTPATDGMVHPGDPSWYYGWVHKRNPRTVAGVDAAGRTVLVTADGRSTDSLGLSIGESAEVARSLGLRDAVNLDGGGSTTMVAEGAVLNSPSDAAGERPVGDALLILPHRHRTRS | failed |
| MSNHSRDEPSTAPKTDQWYDLVLGSSAKDDSSHKFCTLRYEFKPASIDKNRSGSMHKKKDNRVSVEFQNNQPGKPKVTFEGSSEDYKESDAVLFFDGEKFRLERLHRAVTQLRHVRTPGESAAASQSAVPVEHRLSPVGRAAKSPQVNRSLLPDVPVEVERIEIGKPENSAEPANTGNVPATSPVEDKNDDGDEHQEIDLVEIFGSFTPENDNAEKENADGGEYVESLNKQLSMTEEEIADVDDDSGGEGEKGLNAAEALRAQVNAEVQKSQTSSSSSSSGSSSGSDSDGRSKSVSSGSGSGGQSSSGSSSRGSGGSDDEDEVNSV | failed |
| MMSPRIGLTLQKIVETAAEIADANGVQEVTLASLAQTLGVRSPSLYNHVKGLQDVRKNLGIYGIKKLHNRLEEAAEDKRMDEAIHALGEAYVAFVRKHPGLYEATFLRDEEVRKAGDGIVKLCLQVLQQYGLEGENALHATRGFRSICHGFASIEQQGGFGLPLDLDISLHVLLETFIKGLRE | not failed |
| MILPWLILIPFIGGLLCWLGERFGSTLPRWIALLTMTLELALGLWLWATGNFGYAPVPGADPTWALEFHHPWITRFGIDVHLALDGLSLLMILLTGLLGVLSVLCSWKEIQRKVGFFHLNLMWILGGVVGVFLAIDLFMFFFFWEMMLVPMYFLIALWGHSSSDGKKTRIYAATKFFIFTQASGLIMLVAILGLVLVHFNQTGVITFAYADLLKTKLAPGTEYILMLGFFIAFAVKLPVVPLHSWLPDAHAQAPTAGSVDLAGILLKTAAYGLLRFALPLFPNASAEFAPIAMALGLVGIFYGAFLAFAQTDIKRLIAFSSVSHMGFVLIGIYSGSQQALQGVLIQMIAHGLSAAALFILSGQLYERLHTRDMREMGGLWSRIAYIPAISLFFAAASLGLPGTGNFVGEFLILLGSFASAPWITAIATSGLVFGSVYSLIMIHRAYFGPAKSDEVLKGMDGREMIMVLGLAVLLVVLGVFPQPFLDTSAATMHGVQQWLGTAFTQLASAR | not failed |
| SERYAAALEEVADGARQQERHYQLLSALQSLVKELPSSFQQRLSYTTLSDLALALLDGTVFEIVQGLLEIQHLTEKSLYNQRLRLQNEHRVLRQALRQKHQEAQQACRPHNLPVVQAAQQRELEAVEHRIREEQRAMDQKIILELDRKVADQQSTLEKAGVAGFYVTTNPQELMLQMNLLELIRKLQQRGCRAGNAALGLGGPWQSPAAQCDQKGSPVPP | not failed |
| KWLDYDFTSLRKEILDKAFQKSLTQINWIMGGYYLVMESLSFFEYEQSIQSKTVRHLILVFYLLFFMGVIKKLDTYLKEKLYERLEQEQALRYRDMERYSRHIEELYKEVRSFRHDYTNLLTSLRLGIEEEDMEQIKEVYGSVLKDSSQKLQNNKYDLGRLVNIRDKALKSLLAGKFLKARDKNIVFNVEVPEEIQVEGMSLLDFLTIVSILCDNAIEASVEASQPHVSIAFLKNGAQETFIIENSIKEEGIDISEIFSFGASSKGEERGVGLYTVMKIVESHPNTSLNTTCQNQVFRQVLTVIHTE | failed |
| MDQIFNKVGSYWLGQKANKQFDSVGNDLNSVSTSIEGGTKWLVNKIKGKMQKPLPELLKEYDLPIGIFPGDATNYEFDEETKKLTVLIPSICEVGYKDSSVLKFTTTVTGHLEKGKLTDVEGIKTKVMIWVKVTSISTDASKVYFTAGMKKSRSRDAYEVQRNGLRVDKF | not failed |
| MSVTSRYRDAWEGFWNEASGDRGAVFWDAEPTLTAGRHLAHFEPHLTDAALPLIDLGCGNGTQTRYFAERFPHVVGADLSAAALAHARHADPGGLAAYRQLDAADKAEAQALHAELGDANVYVRGVLHQCEPDDRQPLADALAALLGERGRAFLVEPSQAAKTVLMGLAQGPAGPPAKLAPVLRHGLTPGAVPDEAVPEYLRAAGLTVLASGELPLVTTEYTADGTRIELPSAWVVAGTA | failed |
| MLDLKSYREKELASYDLDVELFNEFNFSVYNVMPLRKAFLISTDKGEKILKKIDYTIEEFKFVLAAVNYIKNENEFNRIIDFNKTQSGEYYCIKNGDLYCVMDMIEGKECEFSNPVDLSISSFGLGQLHSASEGFRYSKIASKNICGKMIKGFKRKKEEVNFLKKMVNLYESLNEFDEIFIKNVDYYLEQIDKSIDIMNKSQYYKLCSEEDKIVLCHHDLAHHNIIIKDEEAYFIDFDYAIIDLKVHDLSNIISKAAKVFNYSIDNSKIIISNYCKSNTLSKNEMEVLFGMLSFPEDFYEIVKSYYTKRKDWSNEEFINKMKRKMANEENRVEFLKNFKEDLKI | failed |
| MTLHNEIKQLIIDCLDLEDVSIDDIETDAPLFGDGLGLDSIDALELGLAIKKKFDVKIEANSDSTKAHFYSVASLAKFIESQRP | failed |
| MLAAWLGCVLPAGAGLPVETLRVPPGFRVELLTEAMPSAREMALSPAGILYVGSRTGKVYALPLQVPGATVRVVASGLEQPVGVAWRDGSLYVSAVSRVVRLDRIDSRLDDPPVPVVVSDRFPTETHHGWKFIAFGPDGKLYVPVGAPCNVCHRDEDRYANLMRMNADGSSLEVVARGIRNTVGFDWHPVTHELWFTDNGADMMGDDVPDDELNRITAPGQHFGYPFCHAGDVPDPEFGAGHPCSRYVPPVGKLGAHVAALGMRFYTGSNFPQAYRHNLFIAEHGSWNRSSKVGYRVVRVVLDAAGKVVRQEPFVEGWLRGERAWGRPVDVLVAPDGSLLVSDDYAGAVYRVRYTGKLEHHHHHH | failed |
| MSGDYRITLEELRYISVFHSITGVTAYRCIVDEENNRLIFLVSEGEAGRAIGRGGRLIKLLREALGKNIEVVEYSSDLERIVKNLFPGVKIESINVRERNGVKQVVIKVSEDDKGAAIGKGGKNVKRARLVLSKLFGVEKVVIR | not failed |
| MKNVGDLMQRLQKMMPAHIKPAFKTGEELLAWQKEQGAIRSAALERENRAMKMQRTFNRSGIRPLHQNCSFENYRVECEGQMNALSKARQYVEEFDGNIASFIFSGKPGTGKNHLAAAICNELLLRGKSVLIITVADIMSAMKDTFRNSGTSEEQLLNDLSNVDLLVIDEIGVQTESKYEKVIINQIVDRRSSSKRPTGMLTNSNMEEMTKLLGERVMDRMRLGNSLWVIFNWDSYRSRVTGKEY | failed |
| LRETEARLQRLADNLPGMLYEFCLKPDGTMTFPYVSSGCLELIECSPQELQDDASLTFASTYPEDIIGLQEAIANSAKTLQNFEHEWRIITSSGQLKWVKGASRPERKPGGEITWYGYLLDVSEQQAALRERKQADQQ | not failed |
| MGAWRFWWDSTRRFYKNWGSYVALIFSTNLVISYLAIPFFNWVLEMLLKWQRVSYVSYTNIGSIIIHQPLAALGMVAILLAIIILVYWQFAFLLLGIMNIFRGRPQTVRAVLRSTVTSLTGTSPSTFLFFIGYFIVILPFGSFIFTTPLLNKAKIPAFIVSYLMENPWMTLGLGCFYLLAGYLGIRLISLLPLMIVDRLPWKTAVTRSWQQTRHHLWRYLWTMIVTLFMIFLIVTTIYTLIYVAQLQFDKTSFAMAAATVNLFIMEAITEIIICYTTAIFMMLIIVCYRQDFTLLRQQPQYFNEAPRLRKLTRASVAIGLLLATSLLVAVNLVYLNGLVITKPIMISHRGVDNGNGVQNTIPALIKTSKEHPDYVEMDIQVTKDHQFVVMHDPTLKALAGVKKKPSQLTLKQLEKITVRENGYQAKIPSFDAYLKAAHKHHQKLLVEIKTSSAYTAADTKRFIDRYGATLLAHHDQVHTLSFKVMRDLKRLDQKQFVSYILPYNLTFPHTVANGYTMEVTTLNDQFVDKADRNHKTVYAWDIDNTDQMDQMMFMGVTGVVTDNLTEMQQEVKSNTDHPSYAKLLLTFMNELSLTSNE | failed |
| GDIGGIAQITSSLFLGRGSVASNRHLLQARGITCIVNATIEIPNFNWPQFEYVKVPLADMPHAPIGLYFDTVADKIHSVSRKHGATLVHCAAGVSRSATLCIAYLMKFHNVCLLEAYNWVKARRPVIRPNVGFWRQLIDYERQLFGKSTVKMVQTPYGIVPDVYEKESRHLMPYWG | failed |
